Measurements: the domain aggregation screens of Martell et al. (2025)

Test: soluble fraction after stress (log2 fold change); higher = more stays soluble; pooled small domains, quantitative proteomics
Settings: stress: 50 degC
Outline: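 The measure of aggregation propensity here is the base-two logarithm of the fold change in the soluble amount of each protein after stress. A higher value means more of that protein stays in solution. Stress was applied at 50°C to pooled libraries of small protein domains, read out by high-throughput quantitative proteomics.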

Sequence | soluble fraction (log2)
HMLQLDATDRALIVATQGGLPLVPRPYQVVGEQLGISGEEVVARLRALLDAGVIRRIGAVPN | -0.283
HMDPEARRRAILNAAIDVIVEKGAAALTHRAVAARAGVSLGSTTKYFSSIEDLRENAMDALVREMD | -0.273
HMSTMKSKWFVSSNPIAGVMKYQAQRKKDVNAVDSSENREASGQWYTDKEEAQAIVDKLNAEEQIKEAGK | 0.159
HMSEPQYKVLFSNLDDRDGGAIVTALGAMNVPYKYNDTGTALLVPADRVYDARLQLASQGLPRG | 0.18
HMQGNGKVATELLKDIIASDNLYINAMRMLVMHYNSKGTNQVEMVKLLHNILDLVPDDEYANEILKSAKKA | -0.327
HMGTWKKIGTMTATVNDLYVRETPNGYIMGFINKGTVVEVDGKTTGKWTHAKVEGIGVGWIWTGYLDK | -3.47
HMIKEVGYEKFMQMTEEEDIGRVEIDQEENQITFTDKDETAIYKTGMVDDPDLTERLYDAGAEFS | 0.0297
HMRQVFPNPSSSQIKLASSRIGQAFSILDQQGRVVLSGKVSEEAVIALENLAKGIYVLKIGSWSETILK | -0.903
HMGQVEVPDVVGMTQERAITTLTEAKLVAQIQLTPADVAKGLVAAQSPRAGLKIGEGSFVTIEVSTGPVI | 0.0948
HMLKIVRSREEVESRLYTIYGNVKGRRLYNFYLSLIIDGLDIVKARTSKNVYYTNIRNLKNAGIDFSQKIN | -2.38
HMVPQAVQDIKAYLASGALPYIGPATAKKIVAMFGSDALDVIAEHPEQLTAIRGLNEEKANAIHQEFRRQF | -0.0649
HMPFDRTVQLAGARARQLQALPRYREVLRLLDEGMNPREIGQVLDPPVTRQRASALIQQAKRAQMLGLFED | -0.857
HMRRSVYQANVLDAIKHLVDQNELATTKAIAEYIGDDYQGNVSRAIRELLADRKIKKLPKVGVLQPYEA | -0.285
HMIPLPEDVASMRERLALTPEKADELFGLEDGSFARYEHGEEKVPFVVFQLLWLLGKYPHLIGELR | -0.818
HMITTLLVENLQDVGMRLDHYLVYNLIKYSRSHIQSFIRSGDIRVNGKKVKTGYSLELKDLIHIEMP | -3.75
HMYPFSEETLKEKIREYLKTNRSINRRVLEREFYIRKQTALNWLNRLVDSGFLIKEGVRNSPVYFLAE | -0.691
HMLPDHAPITMRQLAMLHVAKNKLDLTDEDYRSLLLLYGGVESSKQLNQEGLRRVLDRFKELGFEP | -0.0947
HMPFNLKSLADRLSHVFPGLVKMRDDIGAIIVMDKIKVTEHGVTEGGGLAADRVRAVYNEFIKEY | 0.195
HMVITDPFFLEPENLVKDAVALMEKYRISGVPITKKGKLVGILTNRDLRFESNYEQPIANVMS | -0.0305
HMNRKLKAKATREKIYKSAEKLFSQNDYNKVSVDAIVEAAGVAKGSFYVHFASKDALIAMLINDH | -0.179
HMRSSALDEIPGIGKQRKKNLLVHFTSVAKIKEASLDEIAAVPGMNRKAALVVVEFFQNQERE | -1.79
HMINIDESIDESLSEDDAVLDLLERASASFTKAQEALLEGDLGRYQTLIEQADRLVAKALELLDEKN | -0.457
HMKQVNVVSVIGQSEANAKTTLTGLGLKVNVAYEEDTSKADGIVLKQSLEGGKTVNEGTTITITVNKIA | -0.0302

Sequence | soluble fraction (log2)
HMVNLLVTPLEELEINFRTLRALRKYNIYQLEDLLRFIKYNGFDALRIVPGMGIKSTEQLYEKLKDKNI | -0.236
HMVEMSNMELVREQYFQNLIYNVGDWVKDSKTEITGEVVKRGTNYLTIVQEDFTLHKVWLEDAESME | -0.581
HMDEPSITYGKVKVQTSLNVRQGPGTQYARIGSLGPNVRIQILGQEGQWYKIKYGNLQGYVHSDYVELEK | 0.0784
HMKNAYDLKMLVKDNDGNIERNMKYYFFLANGSKVEGITDDNGYTKTITTIQPEKADLHLINDELI | -1.1
HMKTEKYIQVISGTVNVRSGPGTSYAEIAKIDASQIYVVTAKEGEWLKISLANGTIGYVAGWLVKEVTG | -0.186
HMDTVIAEVTASILNLRRSAGTSSDIIGKLNKGEKVSIIGGSGNWKNVRTSGGITGWVYHEYLSTY | -0.623
HMELNESVLKALYEKFREMSGSKGFITEDEVIIQLEKENPDITPDQQAEIFKYLYDTPLQIY | -0.127
HMDFRVGVWVELVQQRRSVRTQLTWVSPQHTLFLFTAKDGSTQSMTLRMRDKLLAEGNLRIVAPPSR | -2.23
HMDLVESYDLKIIYTSELINLLIDSSRLEEALNLFKDLKDEIDDVENLGFSAKNNLDYMESKLLHLG | -1.83
HMLSVRERMSAILVSLEGERYADFTGLFDPTEGKGGVTVTFLAILELLKESMIDVVQNELYGPIHVRAA | -0.368
HMAEIIVHEINRHLGESDEPVEFPEERREEAVAELLKNFHNDDAFRKMDDGKYEVALDGEAVREAARSLLA | 0.207
HMLGARSLNEAVARNLPQILAKYQLIHIAGKNGFNPELQGRGYVQYEYVDTELKDLMALADIVVSR | -1.33
HMDTNKMLIVNSISNGMKRLQELQDPQLAEIQKTFSGLDEQKATSAQLAQINNIINNRIAEIEG | 0.145
HMYFEDEELDRFVGTPAGAYTEEDVEEFRDVLLSLDIEEVPSWVRSLQLRGIDFPETLRPELYLL | -3.14
HMADLIVFTTDANKEKKVDDETYFYLDVVSDGKLVENYELTEKQYNYIKDLGVGEYVYNEKGKLDSYTAFT | -0.00687
HMKHSEAIELGKRMLSQALQDVSLVLKKIPEERLQAVAAELNLKTPDELFEKIGLGERLAALVARRLLP | -0.207
HMVMATPHNTAKAGDIAKTVIMPGDPLRAKYIADNYLDNAVQFNVVRNIYGYTGVYRGTDISVMASGM | 0.128
HMELPMGTQLPPERELAQQMQVSRAVVNGGLAELAQQGFLEVRPRQGTFVADYRRKGNLSTLIAIMEY | 0.0153
HMIMQTTSDRINQRMRDLGLQHKDLVAATGASKGTVTNWINGVNNPTGKRLVQLAQALKTTSSWLLTGN | -0.12
HMGLTLREKMGHVLEMLKGREFLPFVSLFTVEEGRIGVVVTFMSILELVKEGILDLVQTESFGPIHVKAR | -0.326
HMKTTKLEELDMQKEFILKNGKYGFGVYIGGKYIGLTDIGTVNSFKDSLQLPVVSLSDIDFKTFAEKF | -0.757
HMFDLATVKRVAEEAGMKFTIHPVELRAAHPNTAVLTLKSKAGRILVLKAASVGGGRIRVTEIDGVPAD | -0.423
HMTTVKDRVYEILKREIVLGKLKPGEPINIAVLSTKLNISSAPLREALNMLSRDGLVTLNPRKHAAVSE | -0.499

Sequence | soluble fraction (log2)
HMKMNFNEEEQKLLSEANVLVETNKTYTDDEVKGFSNKIVEHIMTFSKTDIPKVKSKFDPILFKI | -0.244
HMISEWDAAYSYAKQYYEENGHLFVPKKYVTSEGAALGKWIWEQRDSYLGLSSYKISDKKIEMLEDIGMFW | -4.02
HMKNVADEVFEKMLNMIIEGDWKKGEMIPSENELREAFSVSRSTVRQAVQRLSALGIVRSRQGKGTYVEQV | -1.04
HMTIDANAIEKMVLDLIGEHPNEWGRYRDGDKKVQGFFVGQIMKATSGQADGKIVNQILSQHAEA | -0.115
HMQLLDIGSAVRIIREPYFGRLGTVVELPPELMEIESGTHARVLKAKLDDGTVAVVPRANVEIIVE | -0.171
HMGPAYEKIVANGQTFYRYNVKKGEGLMAVSRTFNVSVNDILKYNPSAASGLKDGQELLIPVIDDA | 0.164
HMVVTMEKIVVNDGGIRIDTYLADKLNISRSKVAKMLENNILVNNVKVKPSYKVTNNDIIEVEEYV | -0.936
HMLPDGEAFVKVNTSLNIRTGPWGQIVGWFHNNDKVKIIGRDGDWYKISHNGQTRYIHSRYVSSSR | -0.913
HMNIFKLYEENIGPLTPMIADILKEDEAEFPDYWIREAIEIAVKKNARNWKYVHAVLESWQKE | -3.38
HMEDELFSVARAAFPEYASKIHMNYGSTVQSIARQSGVLTVSETKQLNENQQISYLEYSNGAVVLALA | -0.0402
HMRPEKLVLKALRGAHGPLSAEEVAGRIEADGGAGLDVARVEHVLGQLERSGTVAALGGGKYLALR | 0.281
HMKRRSVIVSVVRAQVRQSADEAAAVVFEAEKNVSLDYLETMPGGWVKVRHRDGQTGFVRVNQIWG | -0.807
HMLKEGIKEKINQLQVYADKNDNIIWYDRVVDILSDKDDSVTDEMIEAAIRTLEEAGISVERKQ | 0.0259
HMDNAILQELYDYYKEDPSLSQSELIISMLTRIQEAVGYVSKDVQEEVARLAGVNRGYVAAIIKNLPHL | -0.747
HMANYTVNAYNNGGTGGSVNMRSGPSTNDGIVVRVPHGATVTGTKSGTWSYMTYNTYTGYMMSVYLDEQS | -0.157
HMKSIETVAELVAELKKLNPNAKISNIDGTYTLEEDINTITLPKDFKYDNNLGINNKIDDFTPYISLDVKA | 0.41
HMSLPKVLVPTDITVSQLAKYLEVDAIAIVKKLFGLGVVASLNQRLENEQMQLLGQEFGKDIIFTEN | -0.438
HMKISIDNPSVLLDKLATLFPDTSKNKLRKMLTEGRIYVNDNIEHRAKRELINGDTVKILDKTTSKE | 0.0915
HMKYSELLLEIILQSKEHPTAEQIFIEAKKRNPKIVQATVYNNLKNLLAQGRVIRISNPGQPDRYDNT | -0.401
HMAIDWVQIKAEYISGTMSASKLAEKHGVSVYAIRKRSGKERWQELRRQNQSETANKIAEKI | -1.6
HMGSPKLVIKNGQVDYQVLKKEKLDLLELTSLLRGQNTFSIREIEYAIIEPNGVITVIKKPEYQSVVKGDL | -0.239
HMDRLTISTLGNGLFRVNGAEAEATVYNLSGNVVKVVPADEVIDLSSLAKGVYIIHVDGEAFKVI | -0.86
HMSGMEKLAIQEIEKEIKSFVKGDILIELTGKNRATAYVSEKNVGALIGKKGERINSIEKRLGVGIDVRPY | 0.00444
